{"source": "the domain aggregation screens of Martell et al. (2025)", "data": [{"test": "soluble fraction after stress (log2 fold change); higher = more stays soluble; pooled small domains, quantitative proteomics", "conditions": "stress: pH 4", "summary_of_the_method": "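Aggregation propensity is read out as the fold change in how much of each domain remains soluble after acid stress. The custom small-domain libraries were pooled, held at pH 4 and analysed with high-throughput quantitative proteomics. On the log2 scale used, higher values mean more of the domain stayed soluble.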", "values": [{"sequence": "HMEGLATRLRFLRQARGLSYHALARLSGVTHTALHQIEAGKNIPGLDTAEKIAMALDVDPRWFAYGRGDPS", "soluble fraction (log2)": -0.578}, {"sequence": "HMEGPALKVWKARYLRAAILEQLLSDRWDDRGGQPIRVVVNEPTNSLLIRIPRHLWPEAEKLLQELDQR", "soluble fraction (log2)": -0.312}, {"sequence": "HMEGTEILVNIRKGMTKEEIASLLVSKGLVEDKNTFLVQTALYTSDRYPIQPGSYTLNTAQTPEEMLAVMT", "soluble fraction (log2)": -0.073}, {"sequence": "HMEGVNLTVQEAKQMAAIIAPLLKQGQSPYQIVTNHPELGISEKTLYNYIENDVFHEIAGITVMDL", "soluble fraction (log2)": -0.881}, {"sequence": "HMEHIVNELDRKVIDYLQSHYDAKLNDIAQGIGVSKATATKSIRKLVQTGIVHVVGSSGTGTSYNLTE", "soluble fraction (log2)": 0.0867}, {"sequence": "HMEHVVFEVTESGELENNTAVKHVLNSFNNKSLNLAIDDFGTGYSNLRYIRDMMFGIIKIDRLFIKDINES", "soluble fraction (log2)": 0.158}, {"sequence": "HMEIDFDKINSIFNDANKLYEEGDYFEANNLYKNIVSSNIISKDLYYNLGLSYAKIGSNGYAILWYERALN", "soluble fraction (log2)": -0.215}, {"sequence": "HMEIEEIDYGTFLQMVEDGVVEKIELTDTQIFLTSTVDNDDKVYTTGVMPDQDLTNRLIEAGVVNFGKVV", "soluble fraction (log2)": -0.956}, {"sequence": "HMEIFSIEPDSYLGSGEEIASYYREGVTVIVNMAKLSDAESLRMVDFMSGLKLALLGNIKRITKHVYLLTP", "soluble fraction (log2)": -0.966}, {"sequence": "HMEIITIVSDINGKRIDAWLSEKLENYSRSFIQKLIQNENVKVNNNIVKANYKLKNGDAVAVSIPEPV", "soluble fraction (log2)": -0.261}, {"sequence": "HMEILNYVVSDGQSGIRIDRYLSDSNEDLSRSYIQKLLKEQKVTVQGTFVKANYKVQAGDVITVEVPDMA", "soluble fraction (log2)": 0.238}, {"sequence": "HMEILPAYRDIKKEALLGNINAEFKYVNLLLEHNYIEQAFNIIEDMKTRVDDNPEFEELKSRVADAYLMY", "soluble fraction (log2)": -1.48}, {"sequence": "HMEILTLEELKRLMAKAKLKQNQISGHAGVSKQQISMILAGKRNITKDVSDNLKANLAEYFP", "soluble fraction (log2)": 0.107}, {"sequence": "HMEILVSTRRHEIASLLSRKKRVSFFELFPEKTKEYVVATFLAILEMAKAREVNITQEDTFDEIIVEEA", "soluble fraction (log2)": -1.09}, {"sequence": "HMEIPTPAELREKRIRMGLKQADVARMAGISQSMVARIESGSVDPRVSTLAKIVEVLQAAER", "soluble fraction (log2)": 0.185}, {"sequence": "HMEISLEAKMAEVREQVRGLAGINFRTLLEMQASRSNIIVTFLAILELMKIGAIQIRQEEIFGEIIIDSRD", "soluble fraction (log2)": -0.28}, {"sequence": "HMEISPGDVFKQLPGIGDDLSRRVVESLGIQSLEELESAAHDGRLEQVEGFGERRVQMVRAVLTGMLS", "soluble fraction (log2)": -1.04}, {"sequence": "HMEITTEDIAAQVASWIVRLSEDLTSTDRAALQIEFEQWQQTDSRRAEIAHKMLSLIGQAEQLRKT", "soluble fraction (log2)": -0.614}, {"sequence": "HMEKAISSLTLEEAKKRLEMVRSEKDASLQIYKETGSETARVTAENYGKEENSLLLHISEMSNIV", "soluble fraction (log2)": -0.209}, {"sequence": "HMEKFTGELSQEEKNVLDALSHEEMHVDIIIKLTKLETSAVSSTLSLLEIKGLIKNIGGQNYIK", "soluble fraction (log2)": -0.139}, {"sequence": "HMEKIIFEISEEGKRLDLYIAERTELTRTRIQQLIKDGNINVNNKKSKPSYKVEKNDFIEMIIPDE", "soluble fraction (log2)": -0.49}, {"sequence": "HMEKINLIIEEDNNLRLDKVIAMQLQELSRTQIQDMINQGLVLVNQKKEKASYKTKLNDEIEITILD", "soluble fraction (log2)": -0.382}, {"sequence": "HMEKKDTYTVKNGDSLWGIARTELGDGGRFREIYTLNADTIEAEAKKRGRSSSSEGHWIYPGSVLRLP", "soluble fraction (log2)": -0.325}, {"sequence": "HMEKKGTVVIATVKGDIHDIGKNIVKVLLENYGFDVIDLGKDVPPEAVVEAVQQSGARLVGLSALM", "soluble fraction (log2)": -0.577}, {"sequence": "HMEKKSKLVLAVLQGSDSDNTIRNLNERGFMVTVLSSTGGFLKKKSTTVMIGVEEDRLEEALDVLQKYAG", "soluble fraction (log2)": -0.617}, {"sequence": "HMEKKTILIPPVITVRALAEISQIPVNRLLQELIKNGVFTSINEKIDFDTAVIIGADLNLDIQLL", "soluble fraction (log2)": -0.984}, {"sequence": "HMEKLPRYILPGVPKVKSINISSALDGLVQDYSREFNISQKDIFQIALVEFFKKYGYHNAVKAVL", "soluble fraction (log2)": 0.0067}, {"sequence": "HMEKLSMLKIKELFRLAIEMNLSHRQIAQSLNVSHTVVNRYLKRFKKSNLSYETLLKLGDKEIISALYEH", "soluble fraction (log2)": -0.0551}, {"sequence": "HMEKPAQDVLASHREWMGEMIKAEHMTAKQVWRLLRERADIGVSYPTVKRYLRAHFQFGGPS", "soluble fraction (log2)": 0.00611}, {"sequence": "HMEKRLDYTFGLNKEQLLYLTKSIKDGDFYNVSFIDGTEKKLNRVGSTKEVHKYVNFLMTNDGIVKK", "soluble fraction (log2)": 0.0133}, {"sequence": "HMEKSLKELAQGVGQKVLTSGRPYHFDPMSAMERRVVHMTLMEMDGLRTESEGEGRFRHVVVFPA", "soluble fraction (log2)": -0.208}, {"sequence": "HMEKTEQMQVILDYIARYGEINNEKVQEILGVKRTRAYTILKQMVENGFVTTNGRGEEKKYYSIR", "soluble fraction (log2)": -0.33}, {"sequence": "HMEKTIQIYDNIIIKDFAEKMEVSPSQVITKLIGLGVMANLNQPIDINSAVIVGKEFGFNVESM", "soluble fraction (log2)": -0.952}, {"sequence": "HMEKVLPFEFERKFKTNHTAWDFFSNQAPPSYRKTVIHWILSAKQEITRISRLEKLIAASEQQKRI", "soluble fraction (log2)": -0.31}, {"sequence": "HMEKYIVNQEEQGKRLDIYVVNKSSELTRTAVQRLIEQEHILVNGRKQKASYKVLEGDIITIERV", "soluble fraction (log2)": -0.649}, {"sequence": "HMEKYTDDLEIAAEIARLETLMEGNGRVLIRPSGTEPLVRVMIEGNDIEQITKLAEDLAALLNKRF", "soluble fraction (log2)": -0.842}, {"sequence": "HMELDFNSVYRQLNHEQKQAYQSIKSVLEQKISGSELDKKLKQAQQAFVAKFKENPNFEVPK", "soluble fraction (log2)": 0.22}, {"sequence": "HMELDIGKKAIVIEKIDPEAGTGRVRIEGVDWGAKTADSSVIEKGETVVVKAKGAAFVTVAK", "soluble fraction (log2)": 0.0671}, {"sequence": "HMELEAFPNPTDMFLSFTTKEKTPLAIYDINGKQVLYVEQITSSSKINVSKLSEGVYFAKTNQGTVKWVK", "soluble fraction (log2)": -0.46}, {"sequence": "HMELEQLKSQLTGFLKANREQIFTAQNLADGLRMTDSQGYKQVVNALNASVRDGDVIDIKNGYQYNKN", "soluble fraction (log2)": -0.0153}, {"sequence": "HMELEWENYSLAGEIKTTVMLYQNRRNGLPEEAKQKADALMKQLKQAVIENDAQKVEKIDDALTALLFE", "soluble fraction (log2)": -0.249}, {"sequence": "HMELGYTPNNLRSVRAKYGLTQKQVAEITGLKTWHPVNRWEAPVEAAYHADMPHTKWLKLLDELSSR", "soluble fraction (log2)": -0.0144}, {"sequence": "HMELKYIDYDEALVVYAKTVTASGGGLSGVKDEGGIRKVLDFVQNDLYYPTFVDKLTYLVFGL", "soluble fraction (log2)": -0.155}, {"sequence": "HMELLPAERRQQLVDWFKSNQAGTSQDLARMFGISVSTIRRDLDLLASEGLVKRTHGGAVSIR", "soluble fraction (log2)": 0.2}, {"sequence": "HMELLPFEFARANRVLLRVNESDLVVSPDANHSAVTEILRLNNNIETIKSVDAEAFDKILSSIYSG", "soluble fraction (log2)": -2}, {"sequence": "HMELLSVPSRLGTFFLGGEAGHIIRLYLPGDPTPRIAEHETPVLSEARRQLLEYLAGRRTAFSFPL", "soluble fraction (log2)": -0.223}, {"sequence": "HMELNEIEFENLKESIIIHLEKESLSPHELVKHIQTIHPDKVTAVIQWMLENGFIKTDAGGQLTLVSK", "soluble fraction (log2)": -0.485}, {"sequence": "HMELNELTSRELMVAEQVARGASNREISEALSISERTVKAHLSAAFEKLGVRDRVQLALAMNNIPT", "soluble fraction (log2)": -0.886}, {"sequence": "HMELNKNDLKIIKNISHIYPYFTPVKILQLILSKKFKTIDYNKILKSTSILTTDRSHLYYILNN", "soluble fraction (log2)": 0.22}, {"sequence": "HMELPSDEHLDDISHLARIGHKKGLQEKIIQLEQQGLASAEFIQQLKTLTNNFQFEKIIQWVDSEL", "soluble fraction (log2)": -0.848}, {"sequence": "HMELRIREILESKDIKVSSLAETVGITRANMSNIVNGKSTPSLETLEKIANALGVDITELFA", "soluble fraction (log2)": -0.573}, {"sequence": "HMELSAEGWVDGTGVRMRASASTDSEVVRVTEDGESLDITGVSGTWYRVTAGGVSGYIRSDYVSLEEP", "soluble fraction (log2)": -0.186}, {"sequence": "HMELSAQEIGRRLRIARENADIRQDDAAQVIGMSRPTLVSIEKGVRRVRIQEIQMLARHYGVSVNALLR", "soluble fraction (log2)": -0.2}, {"sequence": "HMELSVTDRTRQIRHILKEKGRVEFTSLFEELTKPYVIVTFLSVLEMSKNNELMITQDKTFGSITLEMKG", "soluble fraction (log2)": -0.383}, {"sequence": "HMELVIGESLAVELLRPGKEDGQALGYLPDGSMVVVNNGRAFVGKRVTAEIIGVIRSAGGKMVFSNLLGE", "soluble fraction (log2)": -2}, {"sequence": "HMEMDITIQMRTLVEELNRASDAYYNGRGELMTDYEWDAKFDQLKQLESQSGVVLPDSPTHRV", "soluble fraction (log2)": -1.51}, {"sequence": "HMEMELNHVARRAGRLSGFLKGELRLSTGLMNRLKWSNAILVNGKPARTNAQVEPGDRITVILD", "soluble fraction (log2)": 0.189}, {"sequence": "HMEMLQENIRNLRKAKGWSQEELAIKLNVVRQTVSKWEKGLSVPDSQMLIRIADELDTTVAILLG", "soluble fraction (log2)": 0.253}, {"sequence": "HMEMLQRFIFLENVSSTQVESAIKELHPNLNLKRVKLSFPGADTVLLKGPKQDLELAEELIRHLDRSE", "soluble fraction (log2)": -0.609}, {"sequence": "HMEMPGGVMRTLSTIAYNQPVLQSKLVKVRGPRAYEDVHILRDMGLVSARSVGQTVELSTTPKFAEQF", "soluble fraction (log2)": 0.102}, {"sequence": "HMENEIFVPKVFMDWYNKVDKSIKVFKAFNLIEKETDPRLKEWVEDNQDEFAKIWLGQLLPVV", "soluble fraction (log2)": -0.35}, {"sequence": "HMENFIPDDPKRIEIGMSVLHQRFGKGKVMQLEGNLPDMKATVNFEGEGQKQLLLKYARLKIV", "soluble fraction (log2)": -0.0241}, {"sequence": "HMENIDVGQDYKVTMNTIQNLMKTGLVTGTQYKELLREMGVHSGMGAITAQQHQIALDFLNKTMDSA", "soluble fraction (log2)": -0.444}, {"sequence": "HMENIIKISASYEGLRVDQFLSNYLKISRSKVQKYISEEKIFLNNVPTKTNRKVKLDDIISYNLNF", "soluble fraction (log2)": 0.0839}, {"sequence": "HMENITTILRSIKNEIKKNSTFVGDDFVNQARSMNQGQIKEKSIYGHGTKKEIEELRDEGVDVLNIPWIT", "soluble fraction (log2)": 0.0184}, {"sequence": "HMENKIIKNAAHATLKVKKDAGIEITTELIREAVILFHRIYSPNDNPNINWERIINELESHYT", "soluble fraction (log2)": -0.993}, {"sequence": "HMENLFPDYTMQDYRIVRSELSSKFKVQTVPVTTATATENKIVRQEPEAGSRITEGMTVILYYSIGPE", "soluble fraction (log2)": 0.0963}, {"sequence": "HMENLRLSELTVERGHRLAGRTLADIASAPNSPKYLIVLIQRGQETVIPTGSTVILPGDVLILAQS", "soluble fraction (log2)": -0.749}, {"sequence": "HMENMSFGTKLYTWLYGKLVGSDEIGNKYYTNINDPSDLNAKRWVIFNGEIEASKIPPHWHAWLHKSIDK", "soluble fraction (log2)": -0.265}]}]}
